# Test results from article doi:10.1101/2022.03.17.484533.
# Experiments:
# [1] = target: LiRecT (RecT homolog from the A118 prophage of Listeria innocua) (Listeria innocua); assay: cryo-EM structure
# [2] = target: LiRecT (RecT homolog from the A118 prophage of Listeria innocua) (Listeria innocua); assay: native MS
# [3] = target: LiRecT (RecT homolog from the A118 prophage of Listeria innocua) (Listeria innocua); assay: cryo-EM structure; remark: listed apart in the source
substance,measurement,setting,value
LiRecT (RecT homolog from the A118 prophage of Listeria innocua) (natural protein),stoichiometry N,[1],18 subunits
same,stoichiometry N,[2],< 9 subunits
same,stoichiometry N,[3],12 subunits
